From the supplement of paper PMC11316812
± gives the standard deviation of the averaged measurements.

Legend:
MCF7 = test: percentage of EdU-negative (G0-arrested) nuclei per well, 72 h; higher = more G0 arrest; settings: reference: sequence is the full UniProt precursor, the tested protein was the secreted form or ectodomain
hTERT-HMEC = test: as above; settings: reference: sequence is the full UniProt precursor, the tested protein was the secreted form or ectodomain
[1] = protein concentration 0.0225 µM
[2] = protein concentration 0.03125 µM
[3] = protein concentration 0.3125 µM
[4] = protein concentration 0.00775 µM
[5] = protein concentration 0.0775 µM
[6] = protein concentration 0.022665 µM
[7] = protein concentration 0.22665 µM
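Note: secreted proteins added to cultured cells, EdU pulse at the end, nuclei found by Hoechst imaging, EdU status from nuclear versus surrounding ring intensity ratio, PBS as neutral control.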

## MRRASRDYTKYLRGSEEMGGGPGAPHEGPLHAPPPPAPHQPPAASRSMFVALLGLGLGQVVCSVALFFYFRAQMDPNRISEDGTHCIYRILRLHENADFQDTTLESQDTKLIPDSCRRIKQAFQGAVQKELQHIVGSQHIRAEKAMVDGSWLDLAKRSKLEAQPFAHLTINATDIPSGSHKVSLSSWYHDRGWAKISNMTFSNGKLIVNQDGFYYLYANICFRHHETSGDLATEYLQLMVYVTKTSIKIPSSHTLMKGGSTKYWSGNSEFHFYSINVGGFFKLRSGEEISIEVSNPSLLDPDQDATYFGAFKVRDID
MCF7; [1]
  percentage of EdU-negative: 28.6 ± 1.4%
MCF7; protein concentration 0.225 µM
  percentage of EdU-negative: 25.6 ± 1.6%
hTERT-HMEC; [1]
  percentage of EdU-negative: 4.57 ± 0.17%
hTERT-HMEC; protein concentration 0.225 µM
  percentage of EdU-negative: 5.25 ± 0.66%

## MRRLLIPLALWLGAVGVGVAELTEAQRRGLQVALEEFHKHPPVQWAFQETSVESAVDTPFPAGIFVRLEFKLQQTSCRKRDWKKPECKVRPNGRKRKCLACIKLGSEDKVLGRLVHCPIETQVLREAEEHQETQCLRVQRAGEDPHSFYFPGQFAFSKALPRS
MCF7; [1]
  percentage of EdU-negative: 27.7 ± 0.92%
MCF7; protein concentration 0.225 µM
  percentage of EdU-negative: 26.6 ± 2.6%
hTERT-HMEC; [1]
  percentage of EdU-negative: 4.71 ± 0.87%
hTERT-HMEC; protein concentration 0.225 µM
  percentage of EdU-negative: 5.88 ± 0.56%

## MRRLLLVTSLVVVLLWEAGAVPAPKVPIKMQVKHWPSEQDPEKAWGARVVEPPEKDDQLVVLFPVQKPKLLTTEEKPRGQGRGPILPGTKAWMETEDTLGHVLSPEPDHDSLYHPPPEEDQGEERPRLWVMPNHQVLLGPEEDQDHIYHPQ [Q96NZ9]
MCF7; protein concentration 0.013 µM
  percentage of EdU-negative: 23.14 ± 0.14%
MCF7; protein concentration 0.13 µM
  percentage of EdU-negative: 27.38 ± 0.25%
hTERT-HMEC; protein concentration 0.013 µM
  percentage of EdU-negative: 4.69 ± 0.15%
hTERT-HMEC; protein concentration 0.13 µM
  percentage of EdU-negative: 5.48 ± 0.53%

## MRRMWATQGLAVALALSVLPGSRALRPGDCEVCISYLGRFYQDLKDRDVTFSPATIENELIKFCREARGKENRLCYYIGATDDAATKIINEVSKPLAHHIPVEKICEKLKKKDSQICELKYDKQIDLSTVDLKKLRVKELKKILDDWGETCKGCAEKSDYIRKINELMPKYAPKAASARTDL
MCF7; [2]
  percentage of EdU-negative: 25.9 ± 1.2%
MCF7; [3]
  percentage of EdU-negative: 24.8 ± 3.6%
hTERT-HMEC; [2]
  percentage of EdU-negative: 5.21 ± 0.51%
hTERT-HMEC; [3]
  percentage of EdU-negative: 6.6 ± 0.2%

## MRRPAAVPLLLLLCFGSQRAKAATACGRPRMLNRMVGGQDTQEGEWPWQVSIQRNGSHFCGGSLIAEQWVLTAAHCFRNTSETSLYQVLLGARQLVQPGPHAMYARVRQVESNPLYQGTASSADVALVELEAPVPFTNYILPVCLPDPSVIFETGMNCWVTGWGSPSEEDLLPEPRILQKLAVPIIDTPKCNLLYSKDTEFGYQPKTIKNDMLCAGFEEGKKDACKGDSGGPLVCLVGQSWLQAGVISWGEGCARQNRPGVYIRVTAHHNWIHRIIPKLQFQPARLGGQK [Q9BQR3]
MCF7; [4]
  percentage of EdU-negative: 25.18 ± 0.16%
MCF7; [5]
  percentage of EdU-negative: 26.7 ± 2.6%
hTERT-HMEC; [4]
  percentage of EdU-negative: 4.44 ± 0.22%
hTERT-HMEC; [5]
  percentage of EdU-negative: 6.65 ± 0.73%

## MRRRRAGGRTMVERASKFVLVVAGSVCFMLILYQYAGPGLSLGAPGGRAPPDDLDLFPTPDPHYEKKYYFPVRELERSLRFDMKGDDVIVFLHIQKTGGTTFGRHLVQNVRLEVPCDCRPGQKKCTCYRPNRRETWLFSRFSTGWSCGLHADWTELTNCVPGVLDRRDSAALRTPRKFYYITLLRDPVSRYLSEWRHVQRGATWKTSLHMCDGRTPTPEELPPCYEGTDWSGCTLQEFMDCPYNLANNRQVRMLADLSLVGCYNLSFIPEGKRAQLLLESAKKNLRGMAFFGLTEFQRKTQYLFERTFNLKFIRPFMQYNSTRAGGVEVDEDTIRRIEELNDLDMQLYDYAKDLFQQRYQYKRQLERREQRLRSREERLLHRAKEALPREDADEPGRVPTEDYMSHIIEKW
MCF7; protein concentration 0.01 µM
  percentage of EdU-negative: 25.6 ± 0.82%
MCF7; protein concentration 0.1 µM
  percentage of EdU-negative: 28.9 ± 4%
hTERT-HMEC; protein concentration 0.01 µM
  percentage of EdU-negative: 5.25 ± 0.85%
hTERT-HMEC; protein concentration 0.1 µM
  percentage of EdU-negative: 31.7 ± 5.8%

## MRSAAVLALLLCAGQVTALPVNSPMNKGDTEVMKCIVEVISDTLSKPSPMPVSQECFETLRGDERILSILRHQNLLKELQDLALQGAKERAHQQKKHSGFEDELSEVLENQSSQAELKEAVEEPSSKDVMEKREDSKEAEKSGEATDGARPQALPEPMQESKAEGNNQAPGEEEEEEEEATNTHPPASLPSQKYPGPQAEGDSEGLSQGLVDREKGLSAEPGWQAKREEEEEEEEEAEAGEEAVPEEEGPTVVLNPHPSLGYKEIRKGESRSEALAVDGAGKPGAEEAQDPEGKGEQEHSQQKEEEEEMAVVPQGLFRGGKSGELEQEEERLSKEWEDSKRWSKMDQLAKELTAEKRLEGQEEEEDNRDSSMKLSFRARAYGFRGPGPQLRRGWRPSSREDSLEAGLPLQVRGYPEEKKEEEGSANRRPEDQELESLSAIEAELEKVAHQLQALRRG
MCF7; [6]
  percentage of EdU-negative: 24.2 ± 2.3%
MCF7; [2]
  percentage of EdU-negative: 26.2 ± 1.6%
MCF7; [7]
  percentage of EdU-negative: 24.9 ± 1.5%
MCF7; [3]
  percentage of EdU-negative: 25.6 ± 1.5%
hTERT-HMEC; [6]
  percentage of EdU-negative: 4.31 ± 0.57%
hTERT-HMEC; [2]
  percentage of EdU-negative: 5.57 ± 0.62%
hTERT-HMEC; [7]
  percentage of EdU-negative: 7.26 ± 0.12%
hTERT-HMEC; [3]
  percentage of EdU-negative: 5.39 ± 0.89%
